Assay: yeast display, Sf9 membrane polyspecificity reagent, FACS + sequencing; frameworks hold sequencing errors
Procedure, shortened: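 Nanobodies came from a synthetic yeast display library in Saccharomyces cerevisiae BJ5465, induced with galactose for 36–48 hours and stained for 1 hour at 4 °C with 10% biotinylated, detergent-solubilized Sf9 membrane reagent. Cells were enriched on streptavidin microbeads and then FACS-sorted, with low and high (top ~1%) gates set on anti-HA fluorescence for expression and streptavidin fluorescence for reagent binding. Each polyreactivity label reflects the gate a clone came from. Genes were amplified by colony PCR, sequenced by MiSeq 2 × 250 and filtered by CDR length.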

Sequence	polyreactivity (PSR sort gate)
QVQLVESGGGLVQAVGSLRLSCAASGFPFRRYALGCYRQAPGKERELDATISSSGASTYYADSVKGRFTISRDHAKNTVYFKMIRLKPVDTAVYYCAATKGSICKLYLYCLFDYWGQGTQVTVSS	high polyreactivity
QVQLVESGGGLVQAVGSLRLSCAASGGIFRVYAMGWYREAPGKEREMVAAIRWTGGSTYYADSVKGRFKISRDNAKNTVYLQMKRLKPEDTAVYYWAAGRYYSDGSRTIYDYWGQGTQVTVSS	low polyreactivity
QVQLVESGGGLVQAVGSLRLSCAASGGTIDIYAMGWYRQAPAKERELVARISYSSGSTHYADSVKGRFTNSRDNAKNTVYLQMNSLKPEDTAVYYCAATAYWFYAKYYYWGQGTQVTVSS	high polyreactivity
QVQLVESGGGLVQAVGSLRLSCAASGRIFRVNAMGWYRQAPGKERELVASITSGGSTHYADSVKGRFTISRDNAKNTVYLQMNSLKPEDTAVYYCNVAYGLLWISPGGDYWGQGTQVTVSS	low polyreactivity
QVQLVESGGGLVQAVGSLRLSCAASGRTFYYYAMGWYRQAPGKERELVASITYYADSVKGRFTISRDNAKNTVYLQMKSLKPEDTAVYYCAARANSYHSFTSHYDYWGQGTQVSVSS	low polyreactivity
QVQLVESGGGLVQAVGSLRLSCAASGSIFGGYAMGWYRQAPGKERELVAAITYSGGSTYYADSVKGRFTISRDNAKNTVYLQMNSLKPEDTAVYYCAAESYDPYYEYDYWGQGTQVTVSS	high polyreactivity
QVQLVESGGGLVQAVGSLRLSCAASGSIFQPYAMGWYRQAPGKERELVAAISIGDSTNYADSVKGRFTISRDNAKNTVYLQMNSLKPEDTAVYYCNTTGEYYDYWGQGTQVTVSS	low polyreactivity
QVQLVESGGGLVQAVGSLRLSCAASGSTFLLNAMGWYRQAPGKEREFVAAITGNAGSTYYADSVKGRFTISRDNAKNTVYLQMNSLKPEDTAVYYCAAALPGYDGDYWGQGTQVTVSS	low polyreactivity
QVQLVESGGGLVQAVGSLRLSCAASGSTLTSYGMGWYRQAPGKERELVAAISRNGGGTYYADSVKGRFTISRDNAKNTVYLQMNSLKPEDTAGYYCAVVRYSSRYDYWGQGTQVTVSS	high polyreactivity
QVQLVESGGGLVQAVGSLRLSCADSGLPFYRNAMGWYRQARGKVRELVAAISLRGGSTYYADSVKGRFTISRDHAKNPVYLQMNSLKPEDTAVYYCAARRWWLNLDYWGQGTQVTVSS	high polyreactivity
QVQLVESGGGLVQAVGSLRLSCDATGSTLHKNTMGWYRQAPAKERELVAAISRRGGSTYYADSVKGRFTISRDNAKITVYLQMNSLKPEDTAVYYCATEGYDGEFDYWGQGTQVTVSS	high polyreactivity
QVQLVESGGGLVQAVGSLRLTCAASGITFLNYAMGWYRQAPGKERELVSAISWSGGRTYYAVSVKGRFTISRDYAKNTVYLQMNSLKPEDTAVYYCATVYVRYRQSRLIRYGYWGQGTQVTVSS	high polyreactivity
QVQLVESGGGLVQAVVSLRLSCAASGSIFGGYAMGWYRQAPGKERELVAAISYRGASTYYADSVKGRFTISRDNAKNTVYLQMNSLKPEDTAVYYCAVAARTRARVLYGYDYWGQGTQVTVSS	low polyreactivity
QVQLVESGGGLVQEGCSLRLSCAPSGIIFGVNAMGLYRQAPAKERELVAVITWSGGSTYYADSVKGRFTISRDNAKNTVYLQMNSLKPEDTAVYYCNADSSASTIDRQGEYYYLGQGTQVTVSS	low polyreactivity
QVQLVESGGGLVQEGGRLRISCAATGINFSWYAMGWNRPATGKERELVASITIGGNTNFADSVKGRFTISLYNAKNSVYLQMNSLKREDTAVYYCAAQTFWYGYGGGVYWGQGTQVTVSS	low polyreactivity
QVQLVESGGGLVQEGGRLRLSCAASGRIISINAMGWYRQAPGKERELVAAITRGGTTYADSVKGRFTISRDIAKNTVYLHMNRLKPEDPAVYYCNARTGRSPSGFRYWGQGTQVTVSS	high polyreactivity
QVQLVESGGGLVQEGGSIRLSCAASGRIFYFNTMGWSRQAPGKERELVAAISKNGGSTYYADSVKGRFTISRDNEKNSVYLQMNSLKPEDTAFYLCAKTRRLSPYDYWGLGTQVTVSS	high polyreactivity
QVQLVESGGGLVQEGGSLGLSCAASGRIFIPYAMGWYRQETGKEREFVATIRWRGGRTYYADSVKGRFTISRDNAKNTVYLQLYSLKPEDTAVYYCAARSNALFRFDYWGQGTQVSVSS	high polyreactivity
QVQLVESGGGLVQEGGSLRIICAASGFIFYYYAMGWYRQAPGKERELVAGISRRGGSTYYADSVKGRFTISRDNAKNTVYLQMNSLKPEDTAVYYCAALGDDATSYGYWGQGTQVTVSS	high polyreactivity
QVQLVESGGGLVQEGGSLRLICAASGLIFRTYTMGWYRQAPGKERELVATITRRGGTTYYADSVKGRFTISRDNAKNTVYLQMNSLKPEDTAVYYCAKSPYYTWKYDYWGQGTQVTVSS	high polyreactivity
QVQLVESGGGLVQEGGSLRLICAASGRIFFYYAMGWYRQAPGKERELVAAISQSGGSTYYADSVKGRFTISRDNAKNTVYLQMNSLKPEDPAVYYCNAAEPYYDTSAVAGDYWGQGTQVTVSS	low polyreactivity

Sequence	polyreactivity (PSR sort gate)
QVQLVESGGGLVQEGGSLRLICAASGRTFRHNVMGWYRQAPGKQRELVAAISYSGGSTHYADSVKGRFTISRDNAKYTVYLQMNSLKPVDTAVYYCNRYSYDSHFLYPFRGHDYWGQGTQVTVSS	low polyreactivity
QVQLVESGGGLVQEGGSLRLICAASGSTFIYNAMGWYRQAPGKERELVASISTSGGSTYYADSVKGRFTISRDNAKNTVYFQMNSLIPEDTAVYYCAKRYFFKYGYWGQGTQVTVSS	high polyreactivity
QVQLVESGGGLVQEGGSLRLNCAASGSTFWGNAMGWYRQPPGKDRELVAAISTSDTSTYYADSVKGRFTISRDNAKNTVYLQMNSLKPEDTAVYFCAAEWYYGEKYDYWGQGTQVTVSS	low polyreactivity
QVQLVESGGGLVQEGGSLRLRCAASGGIFASNAMRWYRQAPGKERELLATITRGGSTNYADSVKGRFTISRDNAKNTVYLQMNSLKPEDTAVYYCAARFYSRAFWPAYYYWGQGTQVTVSS	high polyreactivity
QVQLVESGGGLVQEGGSLRLSCAASGFIFLYYAMGWYRQAPGKERELVASINRVGSTYYADSVKGRFTISRDNAKKTVYLQMNSLKPEVTAVYYCNARWIGRLTPYRRATYNYWGQVTQVTVSS	high polyreactivity
QVQLVESGGGLVQEGGSLRLSCAASGFIFTPNTMGWYRQAPGKERELVAAITTNGGRTYYADSVKGRFTISRDNAKNTVYLQMNSLKSEDTAVYYCAARYVSSFGLHAQVWSYYYCGQGTQVTVSS	high polyreactivity
QVQLVESGGGLVQEGGSLRLSCAASGFIFVTNAMGWYRQAPGKERELVAAITIGDSTYYADSVKGRFTISRDNAKNTVYLQMNSLKPEDTAVYYCAAEVGFGPGFSTIAYTFDYWGQGTQVTVSS	low polyreactivity
QVQLVESGGGLVQEGGSLRLSCAASGFTFPDYAMGWNRQAPGKERDLVAAITSSGGSTYYADSVKGRFTISRDNAKNTVYLQMNSLKPEDTAVYYCNGYISDDRYWSPAIEEDYWGQGTQVTVSS	high polyreactivity
QVQLVESGGGLVQEGGSLRLSCAASGFTFPYYAMGWYRQAPGKERELVAAISNGGSNTYYADSVKGRFTISRDNAKNTVYVQMNSLKPEDTAVYYCAARVGGSYDYWGQGTQVTVSS	high polyreactivity
QVQLVESGGGLVQEGGSLRLSCAASGFTFPYYAMGWYRQAPGKERELVAAITSSGTITYYADSVKGRFTISRDNAKNTVYLQMNSLKPEDTAVYYCAARFSSTRYLQWYYYWGQGTQVTVSS	high polyreactivity
QVQLVESGGGLVQEGGSLRLSCAASGLIFNRYAMGWYRQAPGKERELVAAITSRGGRTYYADSVKGRFTISRDNAKNTVYLQMNSLKPEDTAVYYCNRTPTGSYLYGMDYWGQGTQVTVSS	high polyreactivity
QVQLVESGGGLVQEGGSLRLSCAASGRIFDENAMGWYRQAPGKERELVAAISSGDSTKYADSVKGRFTISRDNAKNTVYLQMNSLKPEDTAVYYCAAARNHGLVGSESVGRNDYWGQGTQVTVSS	low polyreactivity
QVQLVESGGGLVQEGGSLRLSCAASGRIFENNAMGWYRQAPGKERELVAAITSGGSTYYADSVKGRFTISRDNAKNTVYLQMNSLKPEDTAVYYCNVTFRVDPWTRTGYDYWGQGTQVTVST	high polyreactivity
QVQLVESGGGLVQEGGSLRLSCAASGRIFNGYAMGCYRQAPGKERELVAAINSSGGSTYYADSVKGRFTISRDNAKNTVYLQMNSLKPEDTAVYYCARVSYHYRTYDYWGQGTQVTVSS	high polyreactivity
QVQLVESGGGLVQEGGSLRLSCAASGRIFNTNAMGWSRQAPGKERELVAGITDSGDSTYDADSVKGRFTISRDNAKNTVYLQMYSLKPEDTGVYYCATDPASPYIYDYWGQGTQVTVSS	low polyreactivity
QVQLVESGGGLVQEGGSLRLSCAASGRIFPYYAMGWYRQAPGKERELVATITSGGSTYYADSVKGRFTISRDNAKNTVYLQMNSLKPEDTAVYYCAARYPSIYYYRYDYWGQGTQVTVSS	high polyreactivity
QVQLVESGGGLVQEGGSLRLSCAASGRTFADYTMGWYRQAPGKERELVAAISFSGGSTYYEDSVKGRFTISRDNAKNTVYLQMNSLKPEDTAFYYCAAGHKRRAPRYYYWGQGTQVTVSS	high polyreactivity
QVQLVESGGGLVQEGGSLRLSCAASGRTFKKYAMGWYRQAPGKERELVAAITGSGGSTYYADSVKGRFTISRDNAKNTVYLQMNSLKPEDSAVYYCAAYAYGVWHSQDGGNYWGQGTQVTVSS	low polyreactivity
QVQLVESGGGLVQEGGSLRLSCAASGRTFSRYVMGWYRQAPGKERELVAAIRGSGGGTYYADSVKGRFTISRDNAKNTVYLQMNSLKPEDTAVYYCNVVRSTVLYDYWGQGTQVTVSS	high polyreactivity
QVQLVESGGGLVQEGGSLRLSCAASGSIFGGYVMGWYRQAPGKERELVAAITSGGSTYYADSVKGRFTISRDNAKNTVYLQMNSLKPEDTAVYYCAKDYGDWGQGTQVTVSS	low polyreactivity

Reference: the nanobody polyreactivity screen of Harvey et al. (2022)
